Data from the supplement of paper PMC10567573.
± gives the standard deviation.

Experiment: protein stability index of a GFP-peptide fusion (GPS, HEK-293T) (PSI 1-6); higher = more stable
[1] = treatment: DMSO, c terminus: a fixed tail appended
[2] = treatment: MLN4924 1 uM, 8 h, c terminus: a fixed tail appended
[3] = treatment: DMSO, c terminus: native
[4] = treatment: MLN4924 1 uM, 8 h, c terminus: native
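Further: 24-mer peptide tiles fused after GFP, lentivirally expressed, FACS-sorted into six equal bins by GFP/DsRed ratio, decoded by Illumina sequencing, PSI is the read-weighted mean bin number.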

Sequence	protein stability index [1]	protein stability index [2]	protein stability index [3]	protein stability index [4]
FKRRRVRRRRMETIVFLDKEVFAS [PCMTD2]	2.62 ± 0.16	2.86 ± 0.33		
SGSGNGSSTLNPSTSSSTQGDPAF [NOL4L]	5.04 ± 0.34	5.07 ± 0.17		
YDVKYLMKSCKNLKGGLQEVAEQL [CNOT7]	2.61 ± 0.43	2.98 ± 0.33		
IDGDGDDMERFMEEMRELRRKIRE [BEX5]	3.26 ± 0.24	3.71 ± 0.34		
KLEAEKRILQEKLDQPVSAPPSPR [CCDC6]	5.24 ± 0.26	5.21 ± 0.37		
LTAALLTFDTGCLTLSQYILLDPI [POMT2]	3.36 ± 0.32	3.12 ± 0.14		
YQLPQMPDVVVRSFMTWLRSYIKL [MED27]	2.01 ± 0.13	2.25 ± 0.21		
CLLQPPSCPNGMSAENGLEKSGFS [DLC1]	3.99 ± 0.14	3.44 ± 0.8		
YVIGGRNETGYLSSVECYNLETNE [KLHL14]	2.66 ± 0.31	3.02 ± 0.59		
ELLQQLDLNNCKNNLEPILEGYIS [KRT71]	2.54 ± 0.1	2.62 ± 0.36		
AEFEKLSDQVKISEEALRADGFGD [SAT2]	5.33 ± 0.11	5.45 ± 0.15		
KEQVLRKGTENLQRAQAEVLQSVR [FCHSD1]	4.5 ± 0.096	4.56 ± 0.27		
TSVGMSFVAGGISGTVAAVLTLPF [SLC25A39]	2.95 ± 0.77	2.54 ± 0.25		
FITRQLKGLEDTKSPQFNRYFYLL [PDS5B]	2.01 ± 0.37	2.11 ± 0.16		
KHLLNLGVEIDEINVYGNTALHIA [ANKRD44]	2.19 ± 0.34	2.07 ± 0.48		
KEAQYIRTELVEQAFRAIDRADYY [PCMTD2]	2.71 ± 0.27	2.88 ± 0.36		
DVRMGGSFRGAFSNSEKAKNIFRI [NET1]	2.32 ± 0.44	2.44 ± 0.31		
LQHLIGLSNLTHVLYPVPLESYED [PRAME]	2.3 ± 0.24	2.54 ± 0.12		
WQRQMDQPQDRNQALGTHRPVNKL [RASAL3]	4.39 ± 0.35	4.49 ± 0.14		
VQYLQHLGTENLHLIFSYSVWVLR [VPS39]	3.23 ± 0.39	2.96 ± 0.41		
PSQRLVQNCLWTLRNLSDAATKQE [CTNNB1]	3.31 ± 0.18	3.19 ± 0.25		
FETMAIEIEQLLARLTGVNDKMAE [GOSR1]	3.06 ± 0.2	3.15 ± 0.38		
LMKHQTNISELKRTFLETSTDTAV [EPB41L3]	3.68 ± 0.79	3.92 ± 0.38		

Sequence	protein stability index [1]	protein stability index [2]	protein stability index [3]	protein stability index [4]
HFMVLSKSGPGDGFFSSAFQARLS [POMT2]	2.19 ± 0.11	2.06 ± 0.18		
PTHQAHTVGFLDEAIQPYRDRLRS [TRIM15]	4.52 ± 0.039	4.44 ± 0.13		
SLSNGQGSRVLHVVQTLYPFSSVT [NCK2]	2.01 ± 0.18	2.14 ± 0.21		
YCFCGWIVLGPYHVKFRSLSMVSE [MCOLN1]	2.85 ± 1.1	3.1 ± 1.3		
SIEGTIPFSKPVKVYIMPKPARR [INTS4]			2.42 ± 0.33	2.56 ± 0.45
DKLEYLDEKQRDPRIEASKVLLCH [NET1]	4.09 ± 0.22	4.08 ± 0.19		
SQYFRSLFSSHPPLGGGVGGQDGL [KLHL14]	2.72 ± 0.17	2.87 ± 0.21		
EELQSWVRGHHPKSGEEAVTVLED [ZNF232]	5.09 ± 0.38	5.07 ± 0.39		
PDIMNLLIKSGAHFDATNLHKQTA [FEM1C]	2.39 ± 0.14	2.29 ± 0.26		
SLGPALSTGPRGLCAMPQTGDAF [VENTX]			2.44 ± 0.12	2.3 ± 0.11
RAFKIKDFANTIPGHGGIMDRFDC [CDS1]	2.41 ± 0.28	2.76 ± 0.27		
SSCFFIESCGAQVPVEGSRRETSI	3 ± 0.38	2.79 ± 0.033		
FQEDVPMSTEEQYRIRQVNIYYYL [EFHC1]	2.52 ± 0.78	2.22 ± 0.15		
ESKKHQVETAFERLQQELEQQRCL [TRIM15]	4.61 ± 0.31	4.53 ± 0.12		
PFSSHTYSQASELPTDAVDCMSRE [FBXO34]	5.25 ± 0.29	5.01 ± 0.075		
YYHRRNEMTTTDDLDFKHHNYKEM [CPXM2]	3.22 ± 0.33	3.35 ± 0.25		
CSSRPLQKGSHPMCKEHEDEKINI [TRIM63]	4.81 ± 0.093	4.84 ± 0.24		
LRRTGCAALRIANCKLFRLQLQQG [GAN]	2.33 ± 0.47	2.13 ± 0.28		
YMLFDPKDSVMQQNLVYYRFHRAR [P3H4]	2.26 ± 0.25	2.27 ± 0.53		
QKPEFQDLSVEERSFVEKHRWPSN [RHOBTB3]	4.08 ± 0.34	4.04 ± 0.17		
VDDLKGSLKEDLTQHKFICEQCGK [SPRY1]	5.03 ± 0.3	4.88 ± 0.26		
PSSMDLLIQDSPDSSTSPKGKQPT [NANOGP8]	5.2 ± 0.2	5.3 ± 0.18		
PHLRSFCETCVGSWSIQMRQHHHQ	2.4 ± 0.25	2.34 ± 0.23		

Sequence	protein stability index [1]	protein stability index [2]	protein stability index [3]	protein stability index [4]
NDAYGPPSNFLEIDVSNPQTVGVG [SNX3]	4.68 ± 0.35	4.59 ± 0.08		
LASRIRSNKKMLLLVGGLPPGPDR [KLHL14]	2.32 ± 0.17	2.34 ± 0.42		
EGSLQQPKAQSAMSPYLVPDTQAL [SMG5]	4.39 ± 0.27	4.5 ± 0.18		
NVNETDDWGRTALHYAAASDMDRN [ANKRD44]	4.69 ± 0.15	4.77 ± 0.33		
RETASLKLLPHQPRIVEMKKGSNG [PDZK1]	3.75 ± 0.31	3.85 ± 0.32		
SAFPFSDKLGELSDKIGSTIDDTI [CLINT1]	3.67 ± 0.2	3.81 ± 0.39		
LIERERSALGPNVTKITLESFLAW [ZC3H15]	2.19 ± 0.47	2.49 ± 0.14		
LSYRNGYAIVRRPTVGIGGDRLQF [EFHC1]	2.23 ± 0.24	2.35 ± 0.29		
SSSHQKCPQLGGPEASGGLVQWI [PLEKHN1]			3.17 ± 0.38	3.47 ± 0.26
NADGSYLCQCHEGFALNPDKKTCT [MATN2]	4.06 ± 0.14	4.2 ± 0.29		
VVRICCIRSFGHFIARLQGSILQF [SMG5]	2.57 ± 0.37	2.66 ± 0.57		
NNKYSYTSNSDDNMLKNIELFDKL [KCTD10]	3.9 ± 0.068	3.9 ± 0.26		
DIKQLIAKKIKLTAEAEELKPFFM [SOAT1]	2.59 ± 0.59	2.15 ± 0.1		
PESRSLPSSPLRLGSYKAQKTSRS [PPEF2]	5.29 ± 0.16	5.14 ± 0.24		
WLSDWVTSYKVMVSNDSHTWVTVK [CPXM2]	2.67 ± 1.5	2.56 ± 0.2		
VHQLSKKEASRHAIMRSPQMVSAI [CTNNB1]	3.06 ± 0.26	3.06 ± 0.22		
EETRQKQLLADEKMKQLTEETEVL [TRIM35]	5.65 ± 0.11	5.57 ± 0.22		
SFIKNSDSFDKFEFCEPAFVVGNC [PCMTD1]	2.37 ± 0.11	2.62 ± 0.22		
TLRTLTGQDTMLKAMFSGRVEVLT [KCTD13]	2.44 ± 0.22	2.37 ± 0.29		
TQTSEECNGILTEKMEEEEQTCDP [ZNF396]	5.5 ± 0.22	5.71 ± 0.17		
GNQDYKYRVSDVTKAGHSLELIEP [VDR]	4.24 ± 0.22	4.3 ± 0.26		
TETHVRDWVMWAVNEFSLKGVDFQ [ETS1]	2.81 ± 0.94	2.72 ± 0.78		
GSMEALNLKQLRKRGSIPTSLTAL [PPFIA4]	3.11 ± 0.2	3.11 ± 0.22		

Sequence	protein stability index [1]	protein stability index [2]	protein stability index [3]	protein stability index [4]
PPKASEQETAKEEDGSVELESQVQ [C18orf25]	5.42 ± 0.17	5.67 ± 0.081		
STICFGQGAARGFKSNKKKTKQC [ZNF511]			4.86 ± 0.14	4.71 ± 0.32
CLPLTFCIHTGLSQYIAVEAAEGR [FBXO3]	2.96 ± 0.72	2.4 ± 0.93		
KLFSTYLRPPHTSRGTSQTPNASS [LPCAT4]	3.17 ± 0.19	3.08 ± 0.32		
LPDVEPAAFLALLRFLYSDEVQIG [BTBD1]	2.16 ± 0.43	2.28 ± 0.28		
CFYRGYTSGVAAVQDWYHFHYVDI [SCNN1D]	3.06 ± 0.86	2.92 ± 0.75		
CIHTGLSQYIAVEAAEGRNKNEVF [FBXO3]	3.38 ± 0.49	3.48 ± 0.19		
ITTPIIDTFKVPKEMFTVGCCVFA [SLC6A17]	2.67 ± 0.59	2.86 ± 0.55		
LSESETGPMEEVERQVLPDPEVLE [PBXIP1]	5.6 ± 0.31	5.61 ± 0.16		
ENHQPVSLSDLEIQASAGVISKKA [ZNF75A]	4.94 ± 0.19	4.98 ± 0.39		
PPAADAPVTQIGFEAPPLQGQAAA [TRIM55]	5.07 ± 0.47	5.15 ± 0.28		
STGEVYCRVPNSGKDEIEAAVKAA [ALDH8A1]	4.93 ± 0.4	4.94 ± 0.32		
HAFQKELTCVICLNYLVDPVTICC [TRIM43]	3.04 ± 0.33	2.95 ± 0.4		
YECGVCAKKFMWRDSFMRHRGHCE [ZBTB22]	5 ± 0.16	4.99 ± 0.17		
PSPVRAPAPSPAKEERKTEVVMNS [PALM]	5.35 ± 0.36	5.53 ± 0.13		
EEWGHQDPSKRALSRDTVQESYEN [ZNF263]	5.27 ± 0.4	5.3 ± 0.23		
LSDFGLCTGLKKAHRTEFYRNLTH [STK38L]	2.41 ± 0.6	2.2 ± 0.27		
TKKKQWCYNCEEEAMYHCCWNTSY [ZMYND11]	2.6 ± 0.25	2.45 ± 0.4		
NVLGAQLDVEAAHSEILKYFQSVT [STX5]	2.76 ± 0.25	2.88 ± 0.33		
RSRKVSCPLTRSNGDLSRSLSPSP [FCHO1]	4.04 ± 0.45	4.08 ± 0.15		
